In US20250171562A1 one finds EC50 and Max effect/effect 1 µM data, which are given here for six molecules.

First the molecules themselves.
B1: NIgG4D1A1(G4S)2 (Fc fusion)
chain 1: DVQLQESGGGLVQAGGSLRLSCAASGLTFSRCDMGWFRQAPGKEREFVARISANGASTHYADFVKGRFTISRDNAKNTVYLQMNYLKPEDTAVYICAAARVPVTWQLYDYWGQGTQVTVSGGGGSGGGGSGPPCPPCPAPEFLGGPSVFLFPPKPKDTLMISRTPEVTCVVVDVSQEDPEVQFNWYVDGVEVHNAKTKPREEQFNSTYRVVSVLTVLHQDWLNGKEYKCKVSNKGLPSSIEKTISKAKGQPREPQVYTLPPCQEEMTKNQVSLWCLVKGFYPSDIAVEWESNGQPENNYKTTPPVLDSDGSFFLYSRLTVDKSRWQEGNVFSCSVMHEALHNHYTQKSLSLSLGK
chain 2: EVQLLESGGGLVQPGGSLRLSCAASGFTFGNYDMAWVRQAPGKRPEWVSSIDTGGDITHYADSVKGRFTISRDNAKNTLYLQMNSLRPEDTAVYWCATDEEYALGPNEFDYYGQGTLVTVSSGGGGSGGGGSGPPCPPCPAPEFLGGPSVFLFPPKPKDTLMISRTPEVTCVVVDVSQEDPEVQFNWYVDGVEVHNAKTKPREEQFNSTYRVVSVLTVLHQDWLNGKEYKCKVSNKGLPSSIEKTISKAKGQPREPQVCTLPPSQEEMTKNQVSLSCAVKGFYPSDIAVEWESNGQPENNYKTTPPVLDSDGSFFLVSRLTVDKSRWQEGNVFSCSVMHEALHNHYTQKSLSLSLGK
B2: CIgG4D1A1(RS) (Fc fusion)
chain 1: GPPCPPCPAPEFLGGPSVFLFPPKPKDTLMISRTPEVTCVVVDVSQEDPEVQFNWYVDGVEVHNAKTKPREEQFNSTYRVVSVLTVLHQDWLNGKEYKCKVSNKGLPSSIEKTISKAKGQPREPQVYTLPPCQEEMTKNQVSLWCLVKGFYPSDIAVEWESNGQPENNYKTTPPVLDSDGSFFLYSRLTVDKSRWQEGNVFSCSVMHEALHNHYTQKSLSLSLGKRSDVQLQESGGGLVQAGGSLRLSCAASGLTFSRCDMGWFRQAPGKEREFVARISANGASTHYADFVKGRFTISRDNAKNTVYLQMNYLKPEDTAVYICAAARVPVTWQLYDYWGQGTQVTVS
chain 2: GPPCPPCPAPEFLGGPSVFLFPPKPKDTLMISRTPEVTCVVVDVSQEDPEVQFNWYVDGVEVHNAKTKPREEQFNSTYRVVSVLTVLHQDWLNGKEYKCKVSNKGLPSSIEKTISKAKGQPREPQVCTLPPSQEEMTKNQVSLSCAVKGFYPSDIAVEWESNGQPENNYKTTPPVLDSDGSFFLVSRLTVDKSRWQEGNVFSCSVMHEALHNHYTQKSLSLSLGKRSEVQLLESGGGLVQPGGSLRLSCAASGFTFGNYDMAWVRQAPGKRPEWVSSIDTGGDITHYADSVKGRFTISRDNAKNTLYLQMNSLRPEDTAVYWCATDEEYALGPNEFDYYGQGTLVTVSS
B3: CIgG4D1A1(G4S)1 (Fc fusion)
chain 1: GPPCPPCPAPEFLGGPSVFLFPPKPKDTLMISRTPEVTCVVVDVSQEDPEVQFNWYVDGVEVHNAKTKPREEQFNSTYRVVSVLTVLHQDWLNGKEYKCKVSNKGLPSSIEKTISKAKGQPREPQVYTLPPCQEEMTKNQVSLWCLVKGFYPSDIAVEWESNGQPENNYKTTPPVLDSDGSFFLYSRLTVDKSRWQEGNVFSCSVMHEALHNHYTQKSLSLSLGKGGGGSDVQLQESGGGLVQAGGSLRLSCAASGLTFSRCDMGWFRQAPGKEREFVARISANGASTHYADFVKGRFTISRDNAKNTVYLQMNYLKPEDTAVYICAAARVPVTWQLYDYWGQGTQVTVS
chain 2: GPPCPPCPAPEFLGGPSVFLFPPKPKDTLMISRTPEVTCVVVDVSQEDPEVQFNWYVDGVEVHNAKTKPREEQFNSTYRVVSVLTVLHQDWLNGKEYKCKVSNKGLPSSIEKTISKAKGQPREPQVCTLPPSQEEMTKNQVSLSCAVKGFYPSDIAVEWESNGQPENNYKTTPPVLDSDGSFFLVSRLTVDKSRWQEGNVFSCSVMHEALHNHYTQKSLSLSLGKGGGGSEVQLLESGGGLVQPGGSLRLSCAASGFTFGNYDMAWVRQAPGKRPEWVSSIDTGGDITHYADSVKGRFTISRDNAKNTLYLQMNSLRPEDTAVYWCATDEEYALGPNEFDYYGQGTLVTVSS
B4: CIgG4D1A1(G4S)3 (Fc fusion)
chain 1: GPPCPPCPAPEFLGGPSVFLFPPKPKDTLMISRTPEVTCVVVDVSQEDPEVQFNWYVDGVEVHNAKTKPREEQFNSTYRVVSVLTVLHQDWLNGKEYKCKVSNKGLPSSIEKTISKAKGQPREPQVYTLPPCQEEMTKNQVSLWCLVKGFYPSDIAVEWESNGQPENNYKTTPPVLDSDGSFFLYSRLTVDKSRWQEGNVFSCSVMHEALHNHYTQKSLSLSLGKGGGGSGGGGSGGGGSDVQLQESGGGLVQAGGSLRLSCAASGLTFSRCDMGWFRQAPGKEREFVARISANGASTHYADFVKGRFTISRDNAKNTVYLQMNYLKPEDTAVYICAAARVPVTWQLYDYWGQGTQVTVS
chain 2: GPPCPPCPAPEFLGGPSVFLFPPKPKDTLMISRTPEVTCVVVDVSQEDPEVQFNWYVDGVEVHNAKTKPREEQFNSTYRVVSVLTVLHQDWLNGKEYKCKVSNKGLPSSIEKTISKAKGQPREPQVCTLPPSQEEMTKNQVSLSCAVKGFYPSDIAVEWESNGQPENNYKTTPPVLDSDGSFFLVSRLTVDKSRWQEGNVFSCSVMHEALHNHYTQKSLSLSLGKGGGGSGGGGSGGGGSEVQLLESGGGLVQPGGSLRLSCAASGFTFGNYDMAWVRQAPGKRPEWVSSIDTGGDITHYADSVKGRFTISRDNAKNTLYLQMNSLRPEDTAVYWCATDEEYALGPNEFDYYGQGTLVTVSS
B5: NIgG4D1A1(G4S)3 (Fc fusion)
chain 1: DVQLQESGGGLVQAGGSLRLSCAASGLTFSRCDMGWFRQAPGKEREFVARISANGASTHYADFVKGRFTISRDNAKNTVYLQMNYLKPEDTAVYICAAARVPVTWQLYDYWGQGTQVTVSGGGGSGGGGSGGGGSGPPCPPCPAPEFLGGPSVFLFPPKPKDTLMISRTPEVTCVVVDVSQEDPEVQFNWYVDGVEVHNAKTKPREEQFNSTYRVVSVLTVLHQDWLNGKEYKCKVSNKGLPSSIEKTISKAKGQPREPQVYTLPPCQEEMTKNQVSLWCLVKGFYPSDIAVEWESNGQPENNYKTTPPVLDSDGSFFLYSRLTVDKSRWQEGNVFSCSVMHEALHNHYTQKSLSLSLGK
chain 2: EVQLLESGGGLVQPGGSLRLSCAASGFTFGNYDMAWVRQAPGKRPEWVSSIDTGGDITHYADSVKGRFTISRDNAKNTLYLQMNSLRPEDTAVYWCATDEEYALGPNEFDYYGQGTLVTVSSGGGGSGGGGSGGGGSGPPCPPCPAPEFLGGPSVFLFPPKPKDTLMISRTPEVTCVVVDVSQEDPEVQFNWYVDGVEVHNAKTKPREEQFNSTYRVVSVLTVLHQDWLNGKEYKCKVSNKGLPSSIEKTISKAKGQPREPQVCTLPPSQEEMTKNQVSLSCAVKGFYPSDIAVEWESNGQPENNYKTTPPVLDSDGSFFLVSRLTVDKSRWQEGNVFSCSVMHEALHNHYTQKSLSLSLGK
B6: CIgG4D1A1(G4S)2 (Fc fusion)
chain 1: GPPCPPCPAPEFLGGPSVFLFPPKPKDTLMISRTPEVTCVVVDVSQEDPEVQFNWYVDGVEVHNAKTKPREEQFNSTYRVVSVLTVLHQDWLNGKEYKCKVSNKGLPSSIEKTISKAKGQPREPQVYTLPPCQEEMTKNQVSLWCLVKGFYPSDIAVEWESNGQPENNYKTTPPVLDSDGSFFLYSRLTVDKSRWQEGNVFSCSVMHEALHNHYTQKSLSLSLGKGGGGSGGGGSDVQLQESGGGLVQAGGSLRLSCAASGLTFSRCDMGWFRQAPGKEREFVARISANGASTHYADFVKGRFTISRDNAKNTVYLQMNYLKPEDTAVYICAAARVPVTWQLYDYWGQGTQVTVS
chain 2: GPPCPPCPAPEFLGGPSVFLFPPKPKDTLMISRTPEVTCVVVDVSQEDPEVQFNWYVDGVEVHNAKTKPREEQFNSTYRVVSVLTVLHQDWLNGKEYKCKVSNKGLPSSIEKTISKAKGQPREPQVCTLPPSQEEMTKNQVSLSCAVKGFYPSDIAVEWESNGQPENNYKTTPPVLDSDGSFFLVSRLTVDKSRWQEGNVFSCSVMHEALHNHYTQKSLSLSLGKGGGGSGGGGSEVQLLESGGGLVQPGGSLRLSCAASGFTFGNYDMAWVRQAPGKRPEWVSSIDTGGDITHYADSVKGRFTISRDNAKNTLYLQMNSLRPEDTAVYWCATDEEYALGPNEFDYYGQGTLVTVSS

As usually defined, the EC50 is the concentration at which the effect is half-maximal.

This assay deals with mixture of three Der p 2 specific recombinant human IgE clones H10, H12, P4E (human) (UniProt P01854). The assay can be described thus: RBL-SX38 IgE displacement, FACS.
Chain of mixture of three Der p 2 specific recombinant human IgE clones H10, H12, P4E (human) (P01854 other isoform, or with tags, fused parts or gaps): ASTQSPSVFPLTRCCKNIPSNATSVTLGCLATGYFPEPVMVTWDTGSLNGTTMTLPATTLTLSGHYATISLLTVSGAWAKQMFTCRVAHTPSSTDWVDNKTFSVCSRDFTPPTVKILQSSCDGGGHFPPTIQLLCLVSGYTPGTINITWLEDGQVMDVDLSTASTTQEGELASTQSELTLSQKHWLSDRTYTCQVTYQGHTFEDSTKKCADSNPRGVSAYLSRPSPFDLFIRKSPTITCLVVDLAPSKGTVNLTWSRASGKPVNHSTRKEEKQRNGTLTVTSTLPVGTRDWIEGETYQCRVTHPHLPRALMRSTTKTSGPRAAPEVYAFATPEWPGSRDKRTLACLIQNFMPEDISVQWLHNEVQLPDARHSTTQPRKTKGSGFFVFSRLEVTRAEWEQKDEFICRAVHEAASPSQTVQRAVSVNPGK
Regarding B1, the EC50 turned out to be 1.6 nM and the Max effect/effect 1 µM stood at 100%.
Regarding B2, the Max effect/effect 1 µM was 16%.
For the molecule B3, the EC50 stood at 65.8 nM and the Max effect/effect 1 µM is 96%.
On the same counts, the results for B4 are 64.6 nM and 96%.
In the same order, the values of B5 are 2 nM and 99%.
In the same order, the values of B6 are 87.2 nM and 96%.
